# How the values were obtained:
# [1] = tested on: tyrosine hydroxylase (TH); experiment: TH activity (DOPA levels after NSD-1015) in N27 cells; type: cell-based, rat; conditions: 2 mM NSD-1015, rottlerin 3 hr vs DMSO, PKCδ-DN vs LacZ
# Method: Plasmid pPKCδ^K376R-V5 encodes the loss of function PKCδ-V5 epitope tagged mutant protein; K376R refers to the mutation of the lysine residue at position 376 to arginine in the catalytic site resulting in inactivation of the kinase. Plasmid pLacZ-V5 encodes the β-galactosidase protein alone with a V5-epitope and is used as a vector control. N27 cells stably expressing PKCδ^K376R-V5 (herein referred to as PKCδ-DN cells) and LacZ alone-expressing cells (LacZ cells) were cultured as described previously (Kitazawa et al., 2005). PKCδ-DN or LacZ expressing N27 cells were identified by immunostaining of the C-terminal V5 epitope on expressed proteins and were differentiated with cAMP analogs (e.g. dibutyral cAMP) prior to experiments. PKCδ-DN and LacZ were also transiently expressed in mouse primary mesencephalic neurons using an AMAXA® Nucleofector™ kit (AMAXA GmbH, Germany). As described above, primary mesencephalic neurons were prepared from the midbrain of 16-18-day-old mice embryos. After digestion with trypsin-EDTA-HBSS, the primary neurons were homogenously resuspended with transfection buffer provided with the kit to a final concentration of 4-5×10^6 neurons/100 μl and mixed with 1 μg plasmid DNA encoding either PKCδ-DN-V5 or LacZ-V5. […] Transfection efficiency was >75% as determined by immunostaining of V5-expression. […]
# N27 cells = experiment: Cellular DA and DOPAC levels in N27 cells (HPLC-EC); type: cell-based, rat; conditions: N27 cells; rottlerin vs vehicle, PKCδ-DN vs LacZ
# Method: (§1) PC12 cells, differentiated N27 dopaminergic cells and primary mesencephalic neurons were exposed to 1-10 μM rottlerin for the duration of the experiment. DMSO (0.01%) was used as vehicle control. PKCδ-DN- and Lac Z-expressing N27 cells were only treated with 0.01% DMSO. […] Untreated or vehicle treated cells were used as control samples.
# DA and DOPAC levels in PC12, N27 cells and in brain striatal tissues were determined by high-performance liquid chromatography with electrochemical detection (HPLC-EC); samples were prepared as described previously (Kitazawa et al., 2001). The DA and DOPAC levels were measured as pg/mg protein and expressed as percent of control.
# [2] = tested on: tyrosine hydroxylase (TH); experiment: TH phosphorylation in N27 cells (Western blot, immunofluorescence); type: cell-based, rat
# Method: as §1
# Cell and brain lysates containing equal amounts of protein were loaded in each lane and separated on a 10-12% SDS-PAGE gel as described previously (Kaul et al., 2003). After the separation, proteins were transferred to nitrocellulose membrane, and nonspecific binding sites were blocked by treating with 5% nonfat dry milk powder. The membranes were then treated with primary antibodies directed against PKCδ (rabbit polyclonal or mouse monoclonal, 1:2000 dilution), TH (rabbit polyclonal or mouse monoclonal, 1:1000), phospho TH-ser40 (rabbit polyclonal, 1:1000), phospho TH-ser31 TH (rabbit polyclonal, 1:1000), or PP2A (mouse monoclonal, 1:1000). The primary antibody treatments were followed by treatment with secondary HRP-conjugated anti-rabbit or anti-mouse IgG (1:2000) for 1 hr at RT. Secondary antibody-bound proteins were detected using Amersham's ECL chemiluminescence kit. To confirm equal protein loading, blots were reprobed with a β-actin antibody (1:5000 dilution). Western blot images were captured with a Kodak 2000 MM imaging system and data were analyzed using 1D Kodak imaging analysis software.
# Immunostaining of PKCδ, TH, Ser40 P-TH and Ser31 P-TH was performed in PC12, N27 and primary mesencephalic neurons. Cells were grown on poly-L-Lysine-coated glass cover slips. After treatment, the cells were fixed with 4% paraformaldehyde and processed for immunohistochemical staining. […] Then the coverslips containing stained cells were washed with PBS, mounted on a slide, and viewed under a Nikon inverted fluorescence microscope (Model TE-2000U); images were captured with a SPOT digital camera (Diagnostic Instruments, Sterling Heights, Mich.).
# [3] = tested on: tyrosine hydroxylase (TH); experiment: TH-ser40 phosphorylation in primary mesencephalic neurons (immunofluorescence); type: cell-based, mouse; conditions: primary neurons, 24 hr post-transfection
# Method: PC12 and N27 cells were cultured as described earlier (Anantharam et al., 2002; Kaul et al., 2003). Briefly, cells were grown in RPMI 1640 medium containing 10% fetal bovine serum, 2 mM L-glutamine, 50 units of penicillin, and 50 μg/ml streptomycin. Cells were maintained in a humidified atmosphere of 5% CO2 at 37° C. N27 cells were differentiated with 2 mM dibutyryl cAMP for 3-5 days and then used for experiments described below. Primary mesencephalic neuronal cultures were prepared from the ventral mesencephalon of gestational 16-18-day-old mice embryos as described previously (Yang et al., 2004). Mesencephalic tissues were dissected and maintained in ice-cold Ca^2+-free HESS and then dissociated in HBSS solution containing trypsin-EDTA (0.25%) for 20 min at 37° C. The dissociated cells were then plated at equal density (0.5×10^6 cells) in 30-mm-diameter tissue culture wells precoated with poly-L-lysine (1 mg/ml). […]
# Plasmid pPKCδ^K376R-V5 encodes the loss of function PKCδ-V5 epitope tagged mutant protein; K376R refers to the mutation of the lysine residue at position 376 to arginine in the catalytic site resulting in inactivation of the kinase. […] Transfection efficiency was >75% as determined by immunostaining of V5-expression. […]
# PP2A = PP2A phosphatase activity in N27 cells (Serine/Threonine phosphatase assay kit); type: cell-based, rat; conditions: rottlerin vs DMSO, PKCδ-DN vs LacZ
# Method: To determine PP2A phosphatase activity, we used the Serine/Threonine phosphatase assay kit from Promega. Briefly, N27 cells and substantia nigral tissue from mouse brain were homogenized in lysis buffer (25 mM Tris-HCl, 10 mM β-mercaptoethanol, 2 mM EDTA, protease inhibitor) supplied with the kit. After centrifugation, the supernatants were used for the assay. PP2A activity was determined by measuring the amount of free phosphate generated in a reaction by measuring the absorbance of a molybdate:malachite green: phosphate complex at 600 nm using the Spectramax plate reader (Molecular Devices). The effective range for the detection of phosphate released in this assay is 100-4,000 pmol of phosphate.
molecule,measurement,setting,value
"PKCδ-DN: loss of function PKCδ-V5 epitope tagged mutant protein, lysine 376 to arginine, kinase inactive (protein, UniProt P28867 1-674, looked up, variant K376R, full-length V5 epitope tag) MAPFLRISFNSYELGSLQVEDEASQPFCAVKMKEALSTERGKTLVQKKPTMYPEWKTTFDAHIYEGRVIQIVLMRAAEDPVSEVTVGVSVLAERCKKNNGKAEFWLDLQPQAKVLMCVQYFLEDGDCKQSMRSEEEAKFPTMNRRGAIKQAKIHYIKNHEFIATFFGQPTFCSVCKEFVWGLNKQGYKCRQCNAAIHKKCIDKIIGRCTGTATNSRDTIFQKERFNIDMPHRFKVYNYMSPTFCDHCGSLLWGLVKQGLKCEDCGMNVHHKCREKVANLCGINQKLLAEALNQVTQRSSRKLDTTESVGIYQGFEKKPEVSGSDILDNNGTYGKIWEGSTRCTLENFTFQKVLGKGSFGKVLLAELKGKDKYFAIRCLKKDVVLIDDDVECTMVEKRVLALAWESPFLTHLICTFQTKDHLFFVMEFLNGGDLMFHIQDKGRFELYRATFYAAEIICGLQFLHSKGIIYRDLKLDNVMLDRDGHIKIADFGMCKENIFGEGRASTFCGTPDYIAPEILQGLKYSFSVDWWSFGVLLYEMLIGQSPFHGDDEDELFESIRVDTPHYPRWITKESKDIMEKLFERDPDKRLGVTGNIRIHPFFKTINWSLLEKRKVEPPFKPKVKSPSDYSNFDPEFLNEKPQLSFSDKNLIDSMDQEAFHGFSFVNPKFEQFLDI",TH activity,[1],2539±307.3 pg DOPA/10^6 cells/hr
same,DA level,N27 cells,4806±373 pg/μg protein
same,DOPAC levels,N27 cells,2783±968.31 pg/μg protein
same,increase in DA level,N27 cells,4 fold
same,increase in DOPAC levels,N27 cells,3 fold
same,THser31 phosphorylation level,[2]; N27 cells,unaltered
same,level of total TH,[2]; N27 cells,unaltered
same,"fluorescent intensity of TH-ser40 immunostaining, increase versus Lac-Z",[2]; N27 cells stably expressing PKCδ-DN,2.5 fold
same,fluorescence of TH-ser40 immunostaining versus Lac-Z expressing neurons,[3],about 2.5 times
same,reduction of PP2A activity,PP2A,56%
